Measurements from US20220135701A1 (Genentech, published 2022).
Residue numbers refer to the chain shown, from its start. Values belong to the binder of their own block, whether it stands above or below them.

Assays:
MuMER (E23-S496) = biological target: T1, MuMER (E23-S496) (mouse, UniProt Q60805 23-496); assay: SPR BIAcore T200, Ab captured, 25C
T1 construct: range 23-496; also called mouse MerTK extracellular domain
T1 sequence (looked up): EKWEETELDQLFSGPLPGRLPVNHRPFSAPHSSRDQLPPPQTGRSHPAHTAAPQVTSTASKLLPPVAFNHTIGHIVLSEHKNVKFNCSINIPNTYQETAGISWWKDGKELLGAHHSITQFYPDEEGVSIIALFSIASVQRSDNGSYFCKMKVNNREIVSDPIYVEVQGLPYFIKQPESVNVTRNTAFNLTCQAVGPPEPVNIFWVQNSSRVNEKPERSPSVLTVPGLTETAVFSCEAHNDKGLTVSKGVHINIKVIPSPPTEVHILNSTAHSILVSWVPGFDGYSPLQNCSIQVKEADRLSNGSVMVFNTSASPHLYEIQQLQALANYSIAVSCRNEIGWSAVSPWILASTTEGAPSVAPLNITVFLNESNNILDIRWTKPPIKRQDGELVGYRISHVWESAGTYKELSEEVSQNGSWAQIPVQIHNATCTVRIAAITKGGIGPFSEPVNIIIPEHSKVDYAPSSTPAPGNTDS
Experimental: (§1) Binding affinity determinations were obtained using Surface Plasmon Resonance (SRP) measurements from a BIAcore™-T200 instrument. Briefly, each rabbit antibody was captured to achieve approximately 100 RU (Response Units). Then, 3-fold serial dilutions of the various MerTK domains (0.4 nM to 100 nM) diluted in HBS-EP buffer (0.01M HEPES pH 7.4, 0.15M NaCl, 3 mM EDTA and 0.05% v/v surfactant P20) was injected into the BIAcore™-T200 instrument at 25° C. or 37° C. with a flow rate of 30 μl/min. Association rates (kₒₙ) and dissociation rates (koff) were calculated using a simple one-to-one Langmuir binding model (BIAcore T200 evaluation software version 2.0). The equilibrium dissociation constant (KD) was calculated as the ratio koff/kₒₙ.
(§2) Antibody epitope determination was assessed by BIAcore analysis for rabbit antibodies binding against both the human and mouse MerTK extracellular domain (HuMER R26-A499 and MuMER E23-S496), Ig1&2 domain, Ig1-only domain, and Ig2-only domain (TABLE 18). Human MerTK and its domains are shown in light gray, while mouse MerTK and its domains are shown in dark gray.

HuMER (R26-A499) = biological target: T2, HuMER (R26-A499) (human, UniProt Q12866 26-499); assay: SPR BIAcore T200, Ab captured, 25C
T2 construct: Extracellular domain with both Ig-like and both fibronectin-like domains; also called human MerTK extracellular domain
T2 sequence: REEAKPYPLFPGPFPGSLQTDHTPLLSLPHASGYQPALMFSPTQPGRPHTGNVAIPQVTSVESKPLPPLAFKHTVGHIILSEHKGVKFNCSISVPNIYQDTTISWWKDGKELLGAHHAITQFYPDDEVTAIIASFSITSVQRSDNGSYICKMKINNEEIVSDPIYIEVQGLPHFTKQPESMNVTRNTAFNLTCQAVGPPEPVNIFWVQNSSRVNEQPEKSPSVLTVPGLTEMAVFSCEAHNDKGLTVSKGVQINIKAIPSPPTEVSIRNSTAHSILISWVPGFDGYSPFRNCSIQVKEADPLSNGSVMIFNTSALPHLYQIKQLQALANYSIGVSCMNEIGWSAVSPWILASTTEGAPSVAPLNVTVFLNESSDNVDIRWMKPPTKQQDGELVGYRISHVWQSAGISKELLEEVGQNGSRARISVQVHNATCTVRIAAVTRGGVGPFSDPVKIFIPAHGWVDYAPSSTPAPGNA
Experimental: as §1, §2

cynomolgus monkey MerTK = biological target: T3, cynomolgus monkey MerTK (cynomolgus monkey, UniProt A0A2K5V1H9 32-505); assay: SPR BIAcore T200, Ab captured, 25C
T3 construct: Soluble analyte in SPR; also called Cyno MerTK
T3 sequence: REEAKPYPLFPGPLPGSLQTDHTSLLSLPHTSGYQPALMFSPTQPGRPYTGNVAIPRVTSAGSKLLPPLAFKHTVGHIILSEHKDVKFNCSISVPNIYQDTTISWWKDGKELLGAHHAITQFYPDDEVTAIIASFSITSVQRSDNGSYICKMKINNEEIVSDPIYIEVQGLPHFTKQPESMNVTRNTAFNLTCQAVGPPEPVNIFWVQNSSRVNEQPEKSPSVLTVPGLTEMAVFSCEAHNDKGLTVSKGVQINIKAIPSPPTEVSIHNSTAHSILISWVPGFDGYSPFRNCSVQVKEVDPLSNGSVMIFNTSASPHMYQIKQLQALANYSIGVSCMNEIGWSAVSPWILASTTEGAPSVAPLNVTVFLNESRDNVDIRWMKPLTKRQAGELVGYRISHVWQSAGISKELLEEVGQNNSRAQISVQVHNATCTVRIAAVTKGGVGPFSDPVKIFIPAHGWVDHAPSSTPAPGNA
Experimental: as §1, with “All binding affinity” for “Binding affinity”, “Resonance (SPR)” for “Resonance (SRP)”, “rabbit or humanized” for “rabbit”, “of MerTK from” for “of the”, “various species” for “various MerTK domains”

human MerTK [1] = biological target: T4, human MerTK (human, UniProt Q12866 26-499); assay: SPR BIAcore T200, Ab captured, 25C
T4 construct: also called HuMER
T4 sequence: T2 sequence
Experimental: as §1, with “All binding affinity” for “Binding affinity”, “Resonance (SPR)” for “Resonance (SRP)”, “rabbit or humanized” for “rabbit”, “of MerTK from” for “of the”, “various species” for “various MerTK domains”

mouse MerTK = biological target: T5, mouse MerTK (mouse, UniProt Q60805 23-496); assay: SPR BIAcore T200, Ab captured, 25C
T5 construct: also called MuMER
T5 sequence (looked up): T1 sequence (looked up)
Experimental: as §1, with “All binding affinity” for “Binding affinity”, “Resonance (SPR)” for “Resonance (SRP)”, “rabbit or humanized” for “rabbit”, “of MerTK from” for “of the”, “various species” for “various MerTK domains”

human MerTK [2] = biological target: T4, human MerTK; assay: SPR BIAcore T200, Ab captured, 37C
Experimental: as §1, with “Each humanized mutation variant was subject to BIAcore analysis to determine the important rabbit residues for binding and stability. Binding” for “Binding”, “humanized mutation variant” for “rabbit”, “human” for “the various”, “MerTK” for “MerTK domains”, “at” for “at 25° C. or”

Kd (MuMER (E23-S496)): 1.2 nM
Kd (HuMER (R26-A499)): 4.3 nM
Kd (cynomolgus monkey MerTK): 3.8 nM
Kd (human MerTK [1]): 4.3 nM
Kd (mouse MerTK): 1.2 nM
B1: Rbt13D8 (antibody, V domains shown)
VH: QSLEESGGRLVTPGTPLTLTCTVSGFSFSSYSMGWVRQAPGKGPEYIGVISASGTTYYASWVNGRFTISKTSTTMDLKMTSPTAADTATYFCARAAFTAYNRGSCVIHRLDLWGQGTLVTVSS
VL: AQVLTQTASSVSAAVGGTVTINCQASQSVYDSKWLAWYQQKPGQPPKLLIYSASTLASGVPSRFKGSGSGTQFTLTISDLECDDAATYYCAGAYTDNIVFGGGTEVVVK
notes: Recombinant rabbit monoclonal antibody, Expi293, protein A purified

Kd (MuMER (E23-S496)): 2.2 nM
Kd (HuMER (R26-A499)): 94 nM
Kd (cynomolgus monkey MerTK): 82.2 nM
Kd (human MerTK [1]): 94 nM
Kd (mouse MerTK): 2.2 nM
B2: Rbt22C4 (antibody, V domains shown)
VH: QSVEESGGRLVTPGTPLTLTCTVSGFSLSTYSMSWVRQAPGKGLEWLGIVSVAIDPVYATWARGRFTISRTSTTVNLKITSPTTEDTATYFCVRVAFSTNGIPHRLDLWGQGTLVTVSS
VL: AQVLTQTASSVSAAVGGTVTISCQSSPSVYNHNWLSWYQQKPGQPPKLLIYEASKLASGVPSRFSGSGSGTQFTLTISDVQCDEAATYYCAGGFSSGSDSFAFGGGTEVVVT
notes: as for B1

Kd (MuMER (E23-S496)): 2.3 nM
Kd (HuMER (R26-A499)): 44 nM
Kd (cynomolgus monkey MerTK): 14.7 nM
Kd (human MerTK [1]): 44 nM
Kd (mouse MerTK): 2.3 nM
B3: Rbt8F4 (antibody, V domains shown)
VH: QSVQESGGRLVTPGTPLTLTCTVSGFSLINYPMSWVRQAPGKGLEWIGVISSTGGTNYASWAKGRFTISKTSTTVDLKITSPTTEDTATYFCARVDFLVYLGGAYIIWGLDLWGQGTLVTVSS
VL: AAVLTQTPSPVSAAVGGTVTINCQSSPNIYSNYLSWFQQKPGQPPKILIYGASTLASGVPSRFKGSGSGTQFTLTISDVQCDDAATYYCAGGYSDSSEAYAFGGGTEVVVK
notes: as for B1

Kd (human MerTK [2]): 8.7 nM
B4: h9E3.FN.V1 HC V24A (antibody, human IgG1, name in Kabat numbering, V domains shown)
VH: EQQLVESGGGLIQPGGSLRLSCAASGFSLSSNAMSWVRQAPGKGLEWIGIISSSGSTYSASWAKGRFTISKDSSKNTMYLQMNSLRAEDTAVYFCARVGFFVGYGAYDYGIIHRLDLWGQGTLVTVSS
VL: DAQLTQSPSTLSASVGDRVTITCQSSKSIYNNNWLSWYQQKPGKPPKLLIYDASDLASGVPSRFSGSGSGTEFTLTISSLQPDDFATYYCAGGYSGDSDYAFGGGTKVEIK
notes: Framework variant of h9E3.FN.v1 (human IgG1)

More lines, now with the values behind:

B5: h9E3.FN.V1 LC L4M (antibody, human IgG1, name in Kabat numbering, V domains shown)
VH: B4 VH with A24V
VL: B4 VL with L4M
notes: as for B4
Kd (human MerTK [2]): 7.5 nM

B6: h9E3.FN.V1 LC P43A (antibody, name in Kabat numbering, V domains shown)
VH: B4 VH with A24V
VL: B4 VL with P45A
notes: as for B4
Kd (human MerTK [2]): 15 nM

B7: h9E3.FN.V1 LC A2I (antibody, human IgG1, name in Kabat numbering, V domains shown)
VH: B4 VH with A24V
VL: B4 VL with A2I
notes: as for B4
Kd (human MerTK [2]): 10.7 nM
